Series [1] deals with the molecule itself. Kind of series: native MS.
Series [2] deals with the molecule itself. Description: native MS. This is another data set of the same source.

Like-named read-outs stand apart in the source and are kept apart here.

The record followed here is article PMC6402485 (Biochemistry, 2013).

B1: Wild type SgrAI ENase (enzyme, Streptomyces griseus)
chain: PFTYSIEATRNLATTERCIQDIRNAPVRNRSTQFQLAQQNMLAYTFGEVIPGFASAGINGMNYRDVIGRPVENAVTEGTHFFRDDFRVDSNAKAKVAGDIFEIVSSAVMWNCAARWNSLMVGEGWRSQPRYSRPTLSPSPRRQVAVLNLPRSFDWVSLLVPESQEVIEEFRAGLRKDGLGLPTSTPDLAVVVLPEEFQNDEMWREEIAGLTRPNQILLSGAYQRLQGRVQPGEISLAVAFKRSLRSDRLYQPLYEANVMQLLLEGKLGAPKVEFEVHTLAPEGTNAFVTYEAASLYGLAEGRSAVHRAIRELYVPPTAADLARRFFAFLNERMELVNG
A word on the stoichiometry N: it is a count of units in the complex or per binding partner. Consider B1, for which the “stoichiometry N” value in series [1] worked out at 38; in series [2], 2.
